# Measurements: PMC10397247
# Where two headings read alike, the source gives them in different places.
# Legend:
# 4H968-bH = biological target: T1, 4H968-bH; test: two-hybrid library CCNG1;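 further: natural log of median RNA to DNA barcode read ratio; higher means stronger binding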
# T1 chain: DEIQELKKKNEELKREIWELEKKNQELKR
# 4H432-AA = biological target: T2, 4H432-AA; test: two-hybrid library CCmax; conditions: mean of both orientations;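 further: natural log of median RNA to DNA barcode read ratio; higher means stronger binding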
# T2 chain: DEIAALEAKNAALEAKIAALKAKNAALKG
# 4H446-AA = biological target: T3, 4H446-AA; test: two-hybrid library CCmax; conditions: mean of both orientations;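 further: natural log of median RNA to DNA barcode read ratio; higher means stronger binding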
# T3 chain: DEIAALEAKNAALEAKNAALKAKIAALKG
# 4H63-AA = biological target: T4, 4H63-AA; test: two-hybrid library CCmax; conditions: mean of both orientations;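 further: natural log of median RNA to DNA barcode read ratio; higher means stronger binding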
# T4 chain: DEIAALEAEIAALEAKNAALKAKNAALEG
# 4H3939-AA = biological target: T5, 4H3939-AA; test: two-hybrid library CCmax
# T5 chain: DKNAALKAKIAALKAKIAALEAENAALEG
# 4H3915-AA = biological target: T6, 4H3915-AA; test: two-hybrid library CCmax; conditions: mean of both orientations
# T6 chain: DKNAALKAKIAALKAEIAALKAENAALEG
# 4H483-AA = biological target: T7, 4H483-AA; test: two-hybrid library CCmax; conditions: mean of both orientations
# T7 chain: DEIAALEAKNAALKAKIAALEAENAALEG
# 4H3974-AA = biological target: T8, 4H3974-AA; test: two-hybrid library CCmax; conditions: mean of both orientations
# T8 chain: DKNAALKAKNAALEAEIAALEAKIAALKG
# 4H3969-AA = biological target: T9, 4H3969-AA; test: two-hybrid library CCmax; conditions: mean of both orientations
# T9 chain: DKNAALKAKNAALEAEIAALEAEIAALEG
# 4H464-AA = biological target: T10, 4H464-AA; test: two-hybrid library CCmax; conditions: mean of both orientations
# T10 chain: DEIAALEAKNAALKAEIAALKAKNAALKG
# 4H380-AA = biological target: T11, 4H380-AA; test: two-hybrid library CCmax
# T11 chain: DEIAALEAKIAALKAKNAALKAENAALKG
# APC9319-AA = biological target: T12, APC9319-AA; test: two-hybrid library CCmax
# T12 chain: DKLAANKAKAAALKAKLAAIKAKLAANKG
# 4H3782-AA = biological target: T13, 4H3782-AA; test: two-hybrid library CCmax; conditions: mean of both orientations
# T13 chain: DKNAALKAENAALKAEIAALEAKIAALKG
# 4H3777-AA = biological target: T14, 4H3777-AA; test: two-hybrid library CCmax
# T14 chain: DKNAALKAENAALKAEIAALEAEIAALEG
# 4H3629-AA = biological target: T15, 4H3629-AA; test: two-hybrid library CCmax
# T15 chain: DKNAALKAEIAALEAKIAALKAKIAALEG
# 4H_APH = biological target: T16, 4H_APH; test: two-hybrid library CCmax
# T16 chain: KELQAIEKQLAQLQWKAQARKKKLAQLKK
# 4H56-AA = biological target: T17, 4H56-AA; test: two-hybrid library CCmax
# T17 chain: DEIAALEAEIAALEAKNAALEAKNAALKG
# 4H_BCR = biological target: T18, 4H_BCR; test: two-hybrid library CCmax; conditions: mean of both orientations
# T18 chain: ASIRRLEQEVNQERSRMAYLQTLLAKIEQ
# 4H_GCN4 = test: two-hybrid library CCmax
# 4H_GCN4, sequence (chain, as listed by the source): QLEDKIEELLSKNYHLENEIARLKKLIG
# GCN2_T = test: two-hybrid library CCmax
# 4H953-bH = biological target: T19, 4H953-bH; test: two-hybrid library CCNG1
# T19 chain: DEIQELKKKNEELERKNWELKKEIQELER
# 4H967-bH = biological target: T20, 4H967-bH; test: two-hybrid library CCNG1
# T20 chain: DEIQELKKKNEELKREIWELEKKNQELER
# 4H72-bA = biological target: T21, 4H72-bA; test: two-hybrid library CCNG1
# T21 chain: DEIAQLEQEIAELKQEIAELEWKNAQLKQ
# 4H953-bA = biological target: T22, 4H953-bA; test: two-hybrid library CCNG1
# T22 chain: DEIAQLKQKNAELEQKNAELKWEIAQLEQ
# 4H883-bA = biological target: T23, 4H883-bA; test: two-hybrid library CCNG1
# T23 chain: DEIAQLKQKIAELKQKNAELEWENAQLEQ
# 4H797-bA = biological target: T24, 4H797-bA; test: two-hybrid library CCNG1
# T24 chain: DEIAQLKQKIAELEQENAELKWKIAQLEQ
# 4H717-bA = biological target: T25, 4H717-bA; test: two-hybrid library CCNG1
# T25 chain: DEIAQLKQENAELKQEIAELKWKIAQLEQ
# 4H967-bA = biological target: T26, 4H967-bA; test: two-hybrid library CCNG1
# T26 chain: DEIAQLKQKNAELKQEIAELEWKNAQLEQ
# 4H754-bA = biological target: T27, 4H754-bA; test: two-hybrid library CCNG1
# T27 chain: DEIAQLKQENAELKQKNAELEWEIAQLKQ
# 4H918-bA = biological target: T28, 4H918-bA; test: two-hybrid library CCNG1
# T28 chain: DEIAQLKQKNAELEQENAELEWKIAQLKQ
# 4H908-bA = biological target: T29, 4H908-bA; test: two-hybrid library CCNG1
# T29 chain: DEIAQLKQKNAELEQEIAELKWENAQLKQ
# 4H452-AA = biological target: T30, 4H452-AA; test: two-hybrid library CCmax
# T30 chain: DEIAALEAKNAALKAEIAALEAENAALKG
# 4H497-AA = biological target: T31, 4H497-AA; test: two-hybrid library CCmax; conditions: mean of both orientations
# T31 chain: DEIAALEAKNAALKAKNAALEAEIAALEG
# 4H656-AA = biological target: T32, 4H656-AA; test: two-hybrid library CCmax; conditions: mean of both orientations
# T32 chain: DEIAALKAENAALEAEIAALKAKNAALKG
# 4H971-AA = biological target: T33, 4H971-AA; test: two-hybrid library CCmax; conditions: mean of both orientations
# T33 chain: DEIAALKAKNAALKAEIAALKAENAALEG
# 4H675-AA = biological target: T34, 4H675-AA; test: two-hybrid library CCmax; conditions: mean of both orientations
# T34 chain: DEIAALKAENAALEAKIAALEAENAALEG
# 4H478-AA = biological target: T35, 4H478-AA; test: two-hybrid library CCmax; conditions: mean of both orientations
# T35 chain: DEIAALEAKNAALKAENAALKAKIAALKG
# 4H428-AA = biological target: T36, 4H428-AA; test: two-hybrid library CCmax; conditions: mean of both orientations
# T36 chain: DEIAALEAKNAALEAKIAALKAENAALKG
# APC8516-AA = biological target: T37, APC8516-AA; test: two-hybrid library CCmax; conditions: mean of both orientations
# T37 chain: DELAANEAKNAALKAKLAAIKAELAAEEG
# APC9182-AA = biological target: T38, APC9182-AA; test: two-hybrid library CCmax; conditions: mean of both orientations
# T38 chain: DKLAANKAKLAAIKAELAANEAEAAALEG
# APC9806-AA = biological target: T39, APC9806-AA; test: two-hybrid library CCmax; conditions: mean of both orientations
# T39 chain: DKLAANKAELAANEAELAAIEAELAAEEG
# APC9141-AA = biological target: T40, APC9141-AA; test: two-hybrid library CCmax; conditions: mean of both orientations
# T40 chain: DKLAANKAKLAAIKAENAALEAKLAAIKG
# APC9291-AA = biological target: T41, APC9291-AA; test: two-hybrid library CCmax; conditions: mean of both orientations
# T41 chain: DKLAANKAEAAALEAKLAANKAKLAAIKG
# APC8401-AA = biological target: T42, APC8401-AA; test: two-hybrid library CCmax
# T42 chain: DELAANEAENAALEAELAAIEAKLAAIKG
# 4H982-AA = biological target: T43, 4H982-AA; test: two-hybrid library CCmax; conditions: mean of both orientations
# T43 chain: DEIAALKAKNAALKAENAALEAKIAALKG
# 4H3718-AA = biological target: T44, 4H3718-AA; test: two-hybrid library CCmax; conditions: mean of both orientations
# T44 chain: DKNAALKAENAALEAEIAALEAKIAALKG
# 4H3606-AA = biological target: T45, 4H3606-AA; test: two-hybrid library CCmax; conditions: mean of both orientations
# T45 chain: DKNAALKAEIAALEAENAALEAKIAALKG
# 4H384-AA = biological target: T46, 4H384-AA; test: two-hybrid library CCmax; conditions: mean of both orientations
# T46 chain: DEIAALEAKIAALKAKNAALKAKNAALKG
# 4H3631-AA = biological target: T47, 4H3631-AA; test: two-hybrid library CCmax; conditions: mean of both orientations
# T47 chain: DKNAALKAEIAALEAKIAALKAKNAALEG
# 4H3697-AA = biological target: T48, 4H3697-AA; test: two-hybrid library CCmax; conditions: mean of both orientations
# T48 chain: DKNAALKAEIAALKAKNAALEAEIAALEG
# 4H3588-AA = biological target: T49, 4H3588-AA; test: two-hybrid library CCmax
# T49 chain: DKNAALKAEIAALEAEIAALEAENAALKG
# 4H3865-AA = biological target: T50, 4H3865-AA; test: two-hybrid library CCmax; conditions: mean of both orientations
# T50 chain: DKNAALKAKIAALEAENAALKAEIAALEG
# 4H697-AA = biological target: T51, 4H697-AA; test: two-hybrid library CCmax; conditions: mean of both orientations
# T51 chain: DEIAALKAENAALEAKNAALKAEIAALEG
binder,measurement,setting,value
DEIQELKKKNEELKREIWELEKKNQELKR [4H968-bH],interaction score,4H968-bH,0.196
DEIAALEAKIAALKAKNAALKAENAALKG [4H380-AA],interaction score,4H432-AA,-1.71
same,interaction score,4H446-AA,-1.43
same,interaction score,4H63-AA,-0.855
same,interaction score,4H3939-AA; mean of both orientations,0.0894
same,interaction score,4H3915-AA,0.315
same,interaction score,4H483-AA,-1.15
same,interaction score,4H3974-AA,-0.717
same,interaction score,4H3969-AA,-1.28
same,interaction score,4H464-AA,-1.6
same,interaction score,4H380-AA,-0.176
DKLAANKAKAAALKAKLAAIKAKLAANKG [APC9319-AA],interaction score,APC9319-AA,-1.58
DKNAALKAEIAALEAKIAALKAKIAALEG [4H3629-AA],interaction score,4H432-AA,-2.37
same,interaction score,4H3782-AA,-0.119
same,interaction score,4H3777-AA; mean of both orientations,-0.576
same,interaction score,4H446-AA,-1.96
same,interaction score,4H63-AA,-0.266
same,interaction score,4H3939-AA; mean of both orientations,-0.964
same,interaction score,4H3915-AA,-0.761
same,interaction score,4H483-AA,-1.87
same,interaction score,4H3974-AA,0.236
same,interaction score,4H3969-AA,-1.01
same,interaction score,4H464-AA,-1.75
same,interaction score,4H3629-AA,1.82
same,interaction score,4H380-AA; mean of both orientations,-1.46
DEIAALEAEIAALEAKNAALEAKNAALKG [4H56-AA],interaction score,4H_APH; mean of both orientations,-1.29
same,interaction score,4H56-AA,-0.981
same,interaction score,4H_BCR,-1.53
same,interaction score,4H_GCN4,-1.92
same,interaction score,GCN2_T,-1.38
DEIQELKKKNEELERKNWELKKEIQELER [4H953-bH],interaction score,4H953-bH,-0.129
same,interaction score,4H968-bH,-1.63
same,interaction score,4H967-bH,-0.919
DEIAQLKQENAELKQEIAELKWKIAQLEQ [4H717-bA],interaction score,4H72-bA,0.154
same,interaction score,4H953-bA,-0.433
same,interaction score,4H883-bA,-1.09
same,interaction score,4H797-bA,-1.13
same,interaction score,4H717-bA,0.924
same,interaction score,4H967-bA,-0.574
same,interaction score,4H754-bA,-0.36
same,interaction score,4H918-bA,-0.185
same,interaction score,4H908-bA,0.244
DEIAALEAKNAALKAEIAALEAENAALKG [4H452-AA],interaction score,4H_APH,-1.91
same,interaction score,4H56-AA; mean of both orientations,-1.4
same,interaction score,4H_BCR,-1.94
same,interaction score,4H_GCN4,-0.935
same,interaction score,GCN2_T,-0.726
same,interaction score,4H452-AA,-0.395
DKNAALKAKIAALKAKIAALEAENAALEG [4H3939-AA],interaction score,4H497-AA,-1.92
same,interaction score,4H656-AA,-0.924
same,interaction score,4H446-AA,-0.459
same,interaction score,4H63-AA,1.57
same,interaction score,4H3939-AA,-1.07
same,interaction score,4H971-AA,-1.81
same,interaction score,4H675-AA,-1.53
same,interaction score,4H483-AA,-2.02
same,interaction score,4H3969-AA,-0.371
same,interaction score,4H464-AA,-1.97
same,interaction score,4H478-AA,-1.63
same,interaction score,4H428-AA,-1.64
DKNAALKAENAALKAEIAALEAEIAALEG [4H3777-AA],interaction score,4H432-AA,-1.01
same,interaction score,4H3777-AA,-0.62
same,interaction score,4H446-AA,-0.779
same,interaction score,4H63-AA,-1.54
same,interaction score,4H3915-AA,-0.495
same,interaction score,4H3974-AA,-0.511
same,interaction score,4H380-AA; mean of both orientations,-1.42
DELAANEAENAALEAELAAIEAKLAAIKG [APC8401-AA],interaction score,APC8516-AA,-1.57
same,interaction score,APC9182-AA,-1.43
same,interaction score,APC9806-AA,-1.46
same,interaction score,APC9141-AA,-1.49
same,interaction score,APC9291-AA,-1.42
same,interaction score,APC8401-AA,-1.51
DKNAALKAEIAALEAEIAALEAENAALKG [4H3588-AA],interaction score,4H982-AA,-1.37
same,interaction score,4H3718-AA,0.71
same,interaction score,4H3606-AA,-1.57
same,interaction score,4H384-AA,1.38
same,interaction score,4H3631-AA,-0.285
same,interaction score,4H3697-AA,-2.28
same,interaction score,4H3588-AA,-1.05
same,interaction score,4H3865-AA,-1.15
same,interaction score,4H697-AA,-1.44
